Data on 77 sequences can be found in the supplement of paper PMC7877785.

The series in a line: self-splicing fitness, log relative to wild type (ln ratio); higher = more splicing; Tetrahymena group I intron in knt gene, E. coli kanamycin selection, DiMSum; sequences stand for … in CUCUCU…GGAGGGAAAAGUUAUCAGGCAUGCACCUGGUAGCUAGUCUUUAAACCAAUAGAUUGCAUCGGUUUAAAAGGCAAGACCGUCAAAUUGCGGGAAAGGGGUCAACAGCCGUUCAGUACCAAGUCUCAGGGGAAACUUUGAGAUGGCCUUGCAAAGGGUAUGGUAAUAAGCUGACGGACAUGGUCCUAACCACGCAGCCAAGUCCUAAGUCAACAGAUCUUCUGUUGAUAUGGAUGCAGUUCACAGACUAAAUGUCGGUCGGGGAAGAUGUAUUCUUCUCAUAAGAUAUAGUCGGACCUCUCCUUAAUGGGAGCUAGCGGAUGAAGUGAUGCAACACUGGAGCCGCUGGGAACUAAUUUGUAUGCGAAAGUAUAUUGAUUAGUUUUGGAGUACUCGUGGUCG
In a few lines: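 Library with all eight P1ex-region intron nucleotides randomised, intron inside the knt kanamycin-resistance gene on pET-22b(+), in E. coli BL21(DE3). Cells grew overnight at 37°C or 30°C on LB agar with or without 25 μg/mL kanamycin (plus 100 μg/mL carbenicillin, 50 μM IPTG, 0.2% rhamnose), in six replicate transformations. Pooled colonies were amplicon-sequenced on Illumina HiSeq 2500. DiMSum fitness is the error-weighted combination of wild-type-normalised replicate fold changes, kanamycin versus none.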

± gives the uncertainty stated by the source.

Turning to CGGUAGCAAUAUUACGCUAA, the “self-splicing fitness (ln)” value (30 °C) is -2.88 ± 0.28 and the “self-splicing fitness (ln)” value (37 °C) was -1.85 ± 0.18. CGGUAGCAAUAUUACGCUUU: the “self-splicing fitness (ln)” value (30 °C) is -3.21 ± 0.27 and the “self-splicing fitness (ln)” value (37 °C) is -0.482 ± 0.12.

As to CGGUAGCAAUAUUACGGAGA, the “self-splicing fitness (ln)” value is -3.87 ± 0.32 (30 °C) and -2.72 ± 0.21 (37 °C).

As to CGGUAGCAAUAUUACGGAGG, the “self-splicing fitness (ln)” value by setting is: (30 °C) -2.24 ± 0.087; (37 °C) -0.94 ± 0.09. In the same order, the values of CGGUAGCAAUAUUACGGAUC are -4.27 ± 0.33 and -1.68 ± 0.23.

For CGGUAGCAAUAUUACGGCAC, the “self-splicing fitness (ln)” value by setting is: (30 °C) -2.11 ± 0.26; (37 °C) -1.99 ± 0.36. For CGGUAGCAAUAUUACGGUAA the same measures were -2.99 ± 0.29 and -3.12 ± 0.3. In the same order, the values of CGGUAGCAAUAUUACGUGGG are -3.79 ± 0.17 and -3.11 ± 0.14.

On to CGGUAGCAAUAUUACGUGUG, for which the “self-splicing fitness (ln)” value by setting is: (30 °C) -0.17 ± 0.062; (37 °C) 0.0947 ± 0.09. For CGGUAGCAAUAUUACGUUGG, the “self-splicing fitness (ln)” value (30 °C) is -1.26 ± 0.091 and the “self-splicing fitness (ln)” value (37 °C) was -0.39 ± 0.084. For the sequence CGGUAGCAAUAUUACGUUUA, the “self-splicing fitness (ln)” value reads like this: (30 °C) -3.46 ± 0.2; (37 °C) -2.03 ± 0.13.

Take CGGUAGCAAUAUUACGUUUU: the “self-splicing fitness (ln)” value (30 °C) is -3.83 ± 0.26 and the “self-splicing fitness (ln)” value (37 °C) is -2.41 ± 0.19.

For the sequence CGUAAGCAAUAUUACGAAAC, the “self-splicing fitness (ln)” value (30 °C) is -2.84 ± 0.32. For the sequence CGUAAGCAAUAUUACGAACC, the “self-splicing fitness (ln)” value reads like this: (30 °C) -0.935 ± 0.24; (37 °C) -1.46 ± 0.24.

CGUAAGCAAUAUUACGACUC: the “self-splicing fitness (ln)” value is, setting by setting: (30 °C) -3.64 ± 0.3; (37 °C) -0.95 ± 0.17.

In the case of CGUAAGCAAUAUUACGAGUA, the “self-splicing fitness (ln)” value (30 °C) is -4.09 ± 0.39 and the “self-splicing fitness (ln)” value (37 °C) was -1.93 ± 0.21. For CGUAAGCAAUAUUACGAUUU the same measures were -2.66 ± 0.14 and -1.58 ± 0.12. As for CGUAAGCAAUAUUACGCAAG, the “self-splicing fitness (ln)” value is -1.99 ± 0.13 (30 °C) and -1.01 ± 0.13 (37 °C). For the sequence CGUAAGCAAUAUUACGCCAU, the “self-splicing fitness (ln)” value by setting is: (30 °C) -3.78 ± 0.24; (37 °C) -2.7 ± 0.23.

As for CGUAAGCAAUAUUACGCCCA, the “self-splicing fitness (ln)” value reads like this: (30 °C) -1.83 ± 0.19; (37 °C) -0.135 ± 0.24. Consider CGUAAGCAAUAUUACGCCCU, for which the “self-splicing fitness (ln)” value (30 °C) is -1.4 ± 0.16 and the “self-splicing fitness (ln)” value (37 °C) is -0.426 ± 0.16. For CGUAAGCAAUAUUACGCCUC the same measures were -4.31 ± 0.47 and -1.44 ± 0.44.

Turning to CGUAAGCAAUAUUACGCUUA, the “self-splicing fitness (ln)” value was -3.67 ± 0.37 (30 °C) and -2.91 ± 0.23 (37 °C).

In the case of CGUAAGCAAUAUUACGGAAU, the “self-splicing fitness (ln)” value (30 °C) is -3.8 ± 0.43 and the “self-splicing fitness (ln)” value (37 °C) was -1.85 ± 0.22. CGUAAGCAAUAUUACGGAGU: the “self-splicing fitness (ln)” value reads like this: (30 °C) -3.13 ± 0.17; (37 °C) -2.89 ± 0.19. Turning to CGUAAGCAAUAUUACGGCAU, the “self-splicing fitness (ln)” value reads like this: (30 °C) -3.27 ± 0.27; (37 °C) -2.37 ± 0.15. In the same order, the values of CGUAAGCAAUAUUACGGUCC are -2.31 ± 0.18 and -2.18 ± 0.24. For the sequence CGUAAGCAAUAUUACGGUGA, the “self-splicing fitness (ln)” value was -3.29 ± 0.17 (30 °C) and -3.18 ± 0.22 (37 °C). For CGUAAGCAAUAUUACGGUGC, the “self-splicing fitness (ln)” value is, setting by setting: (30 °C) -2.65 ± 0.15; (37 °C) -3.7 ± 0.31.

Take CGUCAGCAAUAUUACGAAAG: the “self-splicing fitness (ln)” value is -0.9 ± 0.073 (30 °C) and 0.129 ± 0.096 (37 °C). For CGUCAGCAAUAUUACGAAUU the same measures were -2.82 ± 0.2 and -0.915 ± 0.14. For CGUCAGCAAUAUUACGACGA the same measures were -1.34 ± 0.2 and -1.2 ± 0.21. In the case of CGUCAGCAAUAUUACGAGAA, the “self-splicing fitness (ln)” value was -2.97 ± 0.38 (30 °C) and -2.09 ± 0.29 (37 °C). As for CGUCAGCAAUAUUACGAGCU, the “self-splicing fitness (ln)” value is, setting by setting: (30 °C) -3.17 ± 0.13; (37 °C) -1.45 ± 0.13. Regarding CGUCAGCAAUAUUACGAUGG, the “self-splicing fitness (ln)” value runs as follows: (30 °C) -1.27 ± 0.054; (37 °C) -0.0354 ± 0.084. Consider CGUCAGCAAUAUUACGCCAA, for which the “self-splicing fitness (ln)” value was -3.6 ± 0.3 (30 °C) and -1.73 ± 0.18 (37 °C). In the same order, the values of CGUCAGCAAUAUUACGCUAG are -0.963 ± 0.098 and -0.795 ± 0.15. Consider CGUCAGCAAUAUUACGCUGG, for which the “self-splicing fitness (ln)” value was -2.6 ± 0.3 (30 °C) and -2.14 ± 0.34 (37 °C). With CGUCAGCAAUAUUACGGAGA, the “self-splicing fitness (ln)” value by setting is: (30 °C) -3.44 ± 0.29; (37 °C) -2.76 ± 0.27. With CGUCAGCAAUAUUACGGGGC, the “self-splicing fitness (ln)” value (30 °C) was -2.73 ± 0.2 and the “self-splicing fitness (ln)” value (37 °C) was -3.05 ± 0.32. For CGUCAGCAAUAUUACGGUGC the same measures were -2.31 ± 0.11 and -3.54 ± 0.31. For CGUCAGCAAUAUUACGUACU the same measures were -0.663 ± 0.1 and -0.361 ± 0.12. In the same order, the values of CGUCAGCAAUAUUACGUAGA are -1.3 ± 0.069 and -0.865 ± 0.1. With CGUCAGCAAUAUUACGUAGC, the “self-splicing fitness (ln)” value is, setting by setting: (30 °C) -2.81 ± 0.12; (37 °C) -2.29 ± 0.14. Consider CGUCAGCAAUAUUACGUCGC, for which the “self-splicing fitness (ln)” value by setting is: (30 °C) -3.45 ± 0.34; (37 °C) -1.88 ± 0.36. Turning to CGUCAGCAAUAUUACGUGGU, the “self-splicing fitness (ln)” value is -3.59 ± 0.12 (30 °C) and -2.5 ± 0.13 (37 °C). Consider CGUCAGCAAUAUUACGUUAG, for which the “self-splicing fitness (ln)” value reads like this: (30 °C) -0.494 ± 0.065; (37 °C) -0.365 ± 0.094. For CGUCAGCAAUAUUACGUUGU the same measures were -3.9 ± 0.23 and -2.12 ± 0.18. With CGUGAGCAAUAUUACGAAUC, the “self-splicing fitness (ln)” value by setting is: (30 °C) -2.66 ± 0.2; (37 °C) -2.34 ± 0.28. In the case of CGUGAGCAAUAUUACGAGAU, the “self-splicing fitness (ln)” value by setting is: (30 °C) -3.4 ± 0.26; (37 °C) -1.57 ± 0.24.

Take CGUGAGCAAUAUUACGAUAA: the “self-splicing fitness (ln)” value reads like this: (30 °C) -4.37 ± 0.39; (37 °C) -2.68 ± 0.23.

Turning to CGUGAGCAAUAUUACGCGAC, the “self-splicing fitness (ln)” value is -2.65 ± 0.35 (30 °C) and -2.21 ± 0.36 (37 °C). In the case of CGUGAGCAAUAUUACGCGCC, the “self-splicing fitness (ln)” value is, setting by setting: (30 °C) -2.85 ± 0.36; (37 °C) -1.95 ± 0.28.

Take CGUGAGCAAUAUUACGCGCU: the “self-splicing fitness (ln)” value (37 °C) is -1.8 ± 0.36. Regarding CGUGAGCAAUAUUACGCGGU, the “self-splicing fitness (ln)” value (30 °C) is -3.83 ± 0.34 and the “self-splicing fitness (ln)” value (37 °C) was -2.06 ± 0.32. With CGUGAGCAAUAUUACGCUAC, under “37 °C”, the “self-splicing fitness (ln)” value is -0.816 ± 0.38. Regarding CGUGAGCAAUAUUACGCUAG, the “self-splicing fitness (ln)” value was -2.9 ± 0.12 (30 °C) and -1.47 ± 0.21 (37 °C). In the case of CGUGAGCAAUAUUACGCUGC, for the setting “30 °C”, the “self-splicing fitness (ln)” value is -2.64 ± 0.32. As to CGUGAGCAAUAUUACGGACU, the “self-splicing fitness (ln)” value (30 °C) is -1.09 ± 0.14 and the “self-splicing fitness (ln)” value (37 °C) is -0.345 ± 0.23.

As for CGUGAGCAAUAUUACGGAUC, the “self-splicing fitness (ln)” value (30 °C) is -4.24 ± 0.33 and the “self-splicing fitness (ln)” value (37 °C) was -1.88 ± 0.25. For CGUGAGCAAUAUUACGUAAU the same measures were -3.22 ± 0.26 and -2.19 ± 0.25. Regarding CGUGAGCAAUAUUACGUAUC, the “self-splicing fitness (ln)” value was -1.84 ± 0.16 (30 °C) and -2.42 ± 0.27 (37 °C).

With CGUGAGCAAUAUUACGUCUG, the “self-splicing fitness (ln)” value is -0.656 ± 0.072 (30 °C) and 0.0039 ± 0.094 (37 °C).

In the case of CGUGAGCAAUAUUACGUGCU, the “self-splicing fitness (ln)” value reads like this: (30 °C) -3.78 ± 0.29; (37 °C) -2.97 ± 0.34.

As to CGUGAGCAAUAUUACGUUUA, the “self-splicing fitness (ln)” value (30 °C) is -3.08 ± 0.39. On to CGUUAGCAAUAUUACGAAAC, for which the “self-splicing fitness (ln)” value (37 °C) was -1.84 ± 0.37. Turning to CGUUAGCAAUAUUACGAAAU, the “self-splicing fitness (ln)” value by setting is: (30 °C) -3.82 ± 0.35; (37 °C) -2.2 ± 0.28.

Take CGUUAGCAAUAUUACGAAUG: the “self-splicing fitness (ln)” value is -1.92 ± 0.15 (30 °C) and 0.491 ± 0.12 (37 °C).

CGUUAGCAAUAUUACGAAUU: the “self-splicing fitness (ln)” value (37 °C) is -2.39 ± 0.33. CGUUAGCAAUAUUACGACCG: the “self-splicing fitness (ln)” value (30 °C) is -1.13 ± 0.14 and the “self-splicing fitness (ln)” value (37 °C) was -0.193 ± 0.2. For CGUUAGCAAUAUUACGACUA the same measures were -1.12 ± 0.16 and 0.415 ± 0.14. On to CGUUAGCAAUAUUACGACUU, for which the “self-splicing fitness (ln)” value runs as follows: (30 °C) -1.03 ± 0.12; (37 °C) -0.0418 ± 0.17. With CGUUAGCAAUAUUACGCCCU, the “self-splicing fitness (ln)” value runs as follows: (30 °C) -1.26 ± 0.2; (37 °C) -0.204 ± 0.19. For CGUUAGCAAUAUUACGCGAA the same measures were -3.36 ± 0.41 and -3.1 ± 0.43.

Regarding CGUUAGCAAUAUUACGCUCG, the “self-splicing fitness (ln)” value was -1.41 ± 0.14 (30 °C) and -1.38 ± 0.18 (37 °C).

For the sequence CGUUAGCAAUAUUACGCUUA, the “self-splicing fitness (ln)” value is -3.67 ± 0.28 (30 °C) and -1.86 ± 0.25 (37 °C). For the sequence CGUUAGCAAUAUUACGGAAU, for the setting “37 °C”, the “self-splicing fitness (ln)” value is -2.07 ± 0.36.
